Results as given in patent publication US12624096B2, “Anti-tau antibodies and methods of use thereof” (GTInvent Limited, priority 2020, dated 2026).

B1: 3aG3: anti-tau clone, SEQ ID NO: 424 (protein)
scFv: QVQLQESGPSLVKPSQTLSLTCTVSGFSLSSNGVGWVRQAPGKVPEWVGDISSSGKAYANPALKSRLSITRDTAKTQVFLSLSSVTTEDTAVYYCVRCRDGGVSYGYDIDYWGPGLLVTVSSEGKSSGASGESKVDDQAVLTQPPSVSGSPGQRVSITCSGSSSNIGGGNYLSWFQQVPGSAPKLLIYGATSRASGVPDRFSGSRSGNTATLTISSLQAEDEADYYCASFDTSSGGIFGAGTRLTVLG
modifications: 3aG3 amino acid sequence
B2: 3aB7: anti-tau clone, SEQ ID NO: 420 (protein)
scFv: QVQLQESGPSLVKPSQTLSLTCTVSGFSLTSNGVGWVRQAPGKVPEWVGDKSSAGKTYGNPALKSRLSITRDTSKSQVSLSLSSVTTEDTAVYYCVRCRDGGVTYGYDVDYWGPGLLVTVSSEGKSSGASGESKVDDQAVLTQPSSVSKSLGQSVSITCSGSSSNVGYGDVVSWFQQFPGSAPKLLIFGTTTRASGVPDRFSGSRSGNAATLTINSLQAEDEADYYCASFDSDSGGIAGSGTRLTVLG
modifications: 3aB7 amino acid sequence
B3: 3bF4: anti-tau clone, SEQ ID NO: 421 (protein)
scFv: QVQLQESGPSLVKPSQTLSLTCTVSGFSLSSNGVGWVRQAPGKVPEWLGDISSVGKKYANPALKSRLSFTRDTSKSQVSLSLSSVTTEDTAVYYCVKCRDGGVTYGYDIDYWGPGLLVTVSSEGKSSGASGESKVDDQAVLTQPSSVSKSTGQTVSITCSGSSSNVGLRNYVTWFQQVPGSAPKLLIYGATSRASGIPDRFSGSRSGNTATLIISSLQAEDEADYYCASADTNDGGVFGSGTRLTVLG
modifications: 3bF4 amino acid sequence
B4: 3bG4: anti-tau clone, SEQ ID NO: 425 (protein)
scFv: QVQLQESGPSLVKPSQTLSLTCTISGFSLISNGVGWVRQAPGKVPEWVGDIASSGKAYSNPALKSRLSITRDTSKSQVSLSLRSVTTEDTAVYYCVRCRDGGVTYGYDIDYWGPGLLVTVSSEGKSSGASGESKVDDQAVLTQPSSVSKSLGQSVSITCSGSTSNVGSGNDVSWFQQVPGSAPKLLFYGATNRASGVPDRFSGSRSGNTATLTITSLQAEDEADYYCGSYDSNSGGIFGSGTRLTVLG
modifications: 3bG4 amino acid sequence
B5: 3aH6: anti-tau clone, SEQ ID NO: 423 (protein)
scFv: QVQLQESGPSLVKPSQTLSLTCTVSGFSLSSNGVGWVRQAPGKVPEWLGDISSVGKKYANPALKSRLSFTRDTSKSQVSLSLSSVTTEDTAVYYCVKCRDGGVTYGYDIDYWGPGLLVTASSEGKSSGASGESKVDDQAVVTQPSSVSGSLGQSVSITCSGSSGNVGYGDYVSWFQQFHGSAPKLLIYGATNLASGVPARFSGSRSGNTATLTISSLHAEDEADYYCASYDSSSGGVFGSGTRLTVLG
modifications: 3aH6 amino acid sequence
B6: 3aA6: anti-tau clone, sequence in b345 (protein)
scFv: QVRLQESGSSLVKPSQTLSLVCTVSGFPLTSNAVGWVRQAPGKAPEWLGLIDIDGDTAYNPALESRLSITRDTSKSQVSLSLSSVAIEDTAVYYCARHYDKWGYADSIDYWGPGLLVTVSSEGKSSGASGESKVDDQALLTQPSSVFGSLGQRVSITCSGSSSNVGYGDYVGWYQQVPGSAPKLLIYDATTRASGVPDRFSGSRSGNTATLTISSLQAEDEADYYCASYQNERSGVFGSGTRLTVLG
modifications: 3aA6 amino acid sequence
B7: CE3: anti-tau clone, SEQ ID NO: 367 (protein)
scFv: QVRLQESGPSLVKPSQTLSVTCTVSGFSLISNAVGWVRQAPGKVPESLAGCSSDGKCYYNSALKSRLDITRDTSKNQISLSLSSVTTDDAAVYYCTRGYYPVYGYDYLGTIDYWGPGLLVTVSSEGKSSGASGESKVDDQAVLTQPSSVSGSLGQRVSITCSGSSSNVGRNDVAWFQQLPGSGLRTIIYGTTSRPSGIPDRFSGSKSGVTATLTIDSLQAEDEADYFCASGDSSAINDIFGSGTRLTVLG
modifications: CE3 amino acid sequence
B8: MD9/MoD9: anti-tau clone, SEQ ID NO: 373 (protein)
scFv: QVRLQESGPSLVKSSQTLSLTCTVSGFSLTRESIAWVRQAPGKVPEWLGGVGIDGTSYYSPALKSRLSITRDTSKSQASLSLSSVATEDTAMYYCARNYIDFEYWGPGLLVTVSSEGKSSGASGESKVDDQAVLTQLSSVSGSLGQRISITCSGSSSNVGIYDVSWFQQLPGSGLRTVIYGTNNRPSGVPDRFSGSRSGNTATLTISSLQSEDEAIYYCAAGDSSTIAVFGSGTRLTVLG
modifications: MD9 amino acid sequence
B9: 3bD11 (protein)
scFv: RVRLQGSGPSLVKPSQTLSLTCTVSGFSFDSYYVGWVRQAPGKALEWLGNIYSTGRAFYNPALKSRLSITRDTSKSQVSLSVSSVTIEDTALYYCVRGSYYHGGGNGMVDFFDYWSPGLLVTVSSEGKSSGASGESKVDDQVVRTQPSSVSGSLGQRVSITCSGSSSNVGYGNYVGWFQQVPGSAPKLLIYAATSRASGVPDRFSGSRSGNTATLTIDSLQAEDEADYYCSSYQRGNTGVFGSGTRLTVLG

target: hT40 (Homo sapiens, UniProt P10636); assay: Biacore X100 SPR, scAb captured via anti-HuCk, hT40 as analyte; assay type: binding; details: '3a' and '3b' scAbs, Table 25, hT40
Method: Surface plasmon resonance (SPR) is widely regarded as the gold standard for real time measurement of protein-protein interactions such as antibody binding. All SPR experiments were carried out using a Biacore X100 machine and HBS EP+ running buffer (GE Healthcare). A ‘capture’ method was followed for affinity measurements, where an anti-human constant kappa chain (HuCk) antibody was conjugated to the surface of a CM5 sensor chip using an amine coupling kit and scAb molecules were immobilised via their HuCk domain. Amine coupling is a very common approach for immobilising the ligand to the chip surface. […] The capture antibody was diluted 1/100 in 10 mM Sodium acetate buffer pH 5.0 and passed over the activated chip surface for a period of at least 420 s. Final ligand immobilisation levels over 12,000 RU were deemed to be satisfactory.
Following immobilisation, the level of each scAb to be captured was identified using the standard SPR equation with a theoretical RMax of 100 RU. Analyte MW refers to the molecular weight of hT40 or dGA/dGAE molecules, while ligand MW refers to the molecular weight of the scAbs tested. RL is the desired capture level and S refers to the stoichiometric ratio:
The scAb to be tested was added only to flow cell 2 so that flow cell 1 could act as a control to subtract any interaction with the analyte and the chip surface. Both single and multi-cycle runs were utilised using wizards developed in the Biacore X100 control software which are both accepted methods of kinetic analysis (Karlsson, R., et al. Analyzing a kinetic titration series using affinity biosensors (2006) Analytical Biochemistry 349:136-47). The multi-cycle protocol was as follows-Three start-up cycles composed of an initial capture, to the desired level, of the scAb to be tested was performed followed by a 30 s injection of glycine buffer pH 2.0 after each cycle to regenerate the chip surface. […] Following three start-up cycles increasing concentrations (0.15625 nM-100 nM) of the target to be tested were added to the chip surface after the desired scAb capture. The target was added for a 120 s association period and 420 s dissociation period followed by another regeneration, 30 s injection of glycine buffer pH 2.0 in between each cycle.
The single cycle kinetics protocol was similar and utilised the same level of scAb capture. Three start-up cycles were used followed by 5 increasing concentrations of the analyte (6.25 nM-100 nM) for an association period of 120 s followed by a dissociation period of 420 s for each concentration. In single cycle kinetics the regeneration step was performed only after the final analyte concentration was added. Binding responses were analysed in Biacore X100 evaluation software and data fitted to a 1:1 binding model to obtain kinetic and affinity characterisation.

Sequence of hT40 (P10636 1-441 isoform P10636-8): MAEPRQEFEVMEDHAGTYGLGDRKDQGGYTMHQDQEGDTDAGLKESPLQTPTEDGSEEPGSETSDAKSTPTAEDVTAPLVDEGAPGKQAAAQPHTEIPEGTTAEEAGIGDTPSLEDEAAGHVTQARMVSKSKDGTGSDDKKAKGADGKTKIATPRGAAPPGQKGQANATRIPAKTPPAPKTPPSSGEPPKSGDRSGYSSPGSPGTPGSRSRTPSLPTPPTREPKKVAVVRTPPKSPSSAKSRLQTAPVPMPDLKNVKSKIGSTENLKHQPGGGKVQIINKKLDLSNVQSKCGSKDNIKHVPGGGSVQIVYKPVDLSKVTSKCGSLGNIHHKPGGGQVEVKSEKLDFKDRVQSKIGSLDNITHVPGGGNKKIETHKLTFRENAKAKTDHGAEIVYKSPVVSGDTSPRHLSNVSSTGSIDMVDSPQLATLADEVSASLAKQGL

Molecule | ka | kd
B1 | 62940 M⁻¹ s⁻¹ | 0.0003869 s⁻¹
B2 | 207200 M⁻¹ s⁻¹ | 0.01435 s⁻¹
B3 | 109300 M⁻¹ s⁻¹ | 0.01532 s⁻¹
B4 | 6.669e+06 M⁻¹ s⁻¹ | 0.05966 s⁻¹
B5 | 2.757e+06 M⁻¹ s⁻¹ | 0.009868 s⁻¹
B6 | 19000 M⁻¹ s⁻¹ | 0.0188 s⁻¹

same assay, conditions: scAb, Table 23, T441 (hT40)

Molecule | ka | kd
B7 | 174500 M⁻¹ s⁻¹ | 0.000662 s⁻¹

target: htau40 (Homo sapiens, UniProt P10636); assay: Biacore X100 SPR of anti-tau mAbs on immobilised htau40; assay type: binding; details: mAb, Table 27, immobilised hT40
Method: For anti-tau mAb SPR measurements, htau40 was conjugated to the surface of a CM5 sensor chip using amine coupling as explained previously. Briefly, 2 μg/mL htau40 in 10 mM Sodium acetate buffer (pH 4.0) was passed over the activated chip surface (EDC/NHS) in flow cell 2 for a period for 45 s followed by blocking with 1 M ethanolamine-HCl PH 8.5. Flow cell 1 was set up as reference control and blocked simultaneously. Final immobilisation level of htau40 (Rmax) was approximately 250 RU. Following a minimum of three start-up cycles, increasing concentrations (0.78 nM-25 nM) of the mAb in HBS-EP+ buffer was added at a rate of 30 μL/min to the chip. The mAb was added for a 120 s association period and 600 s dissociation period followed by a regeneration cycle of 30 s injection of glycine buffer pH 1.5 in between each cycle. Binding responses were analysed in Biacore X100 evaluation software and data fitted to a 1:1 binding model to obtain kinetic and affinity characterisation.
For anti-tau mAb SPR measurements (Biacore X100™) and epitope mapping, the same methodologies described above (see Example 16) were followed. Kinetic rates and equilibrium binding constants of additional anti-tau mAbs and the regions recognised on hT40 are given in the Table 25 below

Sequence of htau40 (P10636 1-441 isoform P10636-8): as above

Molecule | ka | kd
B7 | 103000 M⁻¹ s⁻¹ | 0.001718 s⁻¹

same assay, conditions: newly converted mAbs, Table 25 (Example 28), hT40

Molecule | ka | kd
B1 | 1.532e+07 M⁻¹ s⁻¹ | 0.004751 s⁻¹
B4 | 4.54e+06 M⁻¹ s⁻¹ | 0.0002964 s⁻¹
B5 | 3.128e+06 M⁻¹ s⁻¹ | 0.0001522 s⁻¹
B8 | 66200 M⁻¹ s⁻¹ | 0.001462 s⁻¹
B9 | 2.671e+06 M⁻¹ s⁻¹ | 0.003979 s⁻¹

same assay, conditions: newly converted mAbs, Table 25 (Example 28); read-out: kD (M) for hT40 binding

Molecule | Kd
B5 | 4.9e-11 M
